Blank lines part the entries; values can stand above or below the substance they belong to.
Columns and labels:
Experiment in all cases: cell-based or functional assay
Cyterm-mScarlet = target: Cyterm-mScarlet
Cyterm-TagRFP-T = target: Cyterm-TagRFP-T
Cyterm-mCherry = target: Cyterm-mCherry
Cyterm-mScarlet-I = target: Cyterm-mScarlet-I
CytERm-mScarlet-I3 = target: CytERm-mScarlet-I3
CytERm-mScarlet3 = target: CytERm-mScarlet3
Cyterm fusion: dTomato = target: Cyterm fusion: dTomato
Cyterm fusion: mEGFP = target: Cyterm fusion: mEGFP

% cells with OSER (Cyterm-mScarlet): 8%
Substance: Cyterm-mScarlet

% cells with OSER (Cyterm-TagRFP-T): 64%
Substance: Cyterm-TagRFP-T

% cells with OSER (Cyterm-mCherry): 18%
Substance: Cyterm-mCherry

% cells with OSER (Cyterm-mScarlet-I): 8%
Substance: Cyterm-mScarlet-I

% cells with OSER (CytERm-mScarlet-I3): 5%
Substance: CytERm-mScarlet-I3

% cells with OSER (CytERm-mScarlet3): 7%
Substance: CytERm-mScarlet3

% cells with OSER (Cyterm fusion: dTomato): 82%
Substance: Cyterm fusion: dTomato

% cells with OSER (Cyterm fusion: mEGFP): 11%
Substance: Cyterm fusion: mEGFP
